B1: Serine/threonine-protein kinase RIM15 (Saccharomyces cerevisiae), P43565 (parent)
chain: MFNRSNTAGGSQAMKEGLGINKLSPISSNSNPSSLTSSNYEKYLQLATEKNPCMILELELDGKVRYGSPQWNTITGVADDSGSSPTYIADLILGSDQDKGVFQKATDMLLMNDDTSCTITFKIKAADYEGSAGCDDESTITTLEARGILIRDGHTQLPSHTMWIVKPRTNDWSDFYANEDAQDDMVIQLSDNCDDIDIQLPEEFAKTLGFGAKIFVQYLKRIRLEMIIDEFNLPLPKMELCRVCENFVPVWWLETHSQSCVCEHRTESLIQLLHDNLLEQQAILANFTKDSEYKGSQIQVRSNNFLNQVLDSLRELCQDAIDINPSEMVPDLYHSLSTFPQDNGNNNNNNNNNNNNNNALLDQFPIQKDTVSLNSYFQFSPRTNHNIQNVTSWQSRFFLNDDQDPGLALLIHDTLDLARKKVDAVLRLDNAMTYSLKIKNEVNNYVVQLIREQIEINKHAILTHPMNLRSSSIFHSPLPQIHSQQPEAENLIYSSSTPLQVQHDQCASFEAPSKSHLEPIPFPVSSIEETPTANDIRHPSPLPRSCSNTVMKLPTPRRKLDSNGLFSDAYLNADIIPNPSIESTISIDRDNNTNSRGSSMKQYGIGEATDSRTSNSERPSSSSSRLGIRSRSITPRQKIEYSHVDNDDRTNEMLSRDKDSLQPQPSVDTTITSSTQATTTGTKTNSNNSTNSVLPKLMTSISLTPRRGSPSFGNLASHSMQQTNSFKLIHDKSPISSPFTFSKDFLTPEQHPSNIARTDSINNAMLTSPNMPLSPLLLATNQTVKSPTPSIKDYDILKPISKGAYGSVYLARKKLTGDYFAIKVLRKSDMIAKNQVTNVKSERAIMMVQSDKPYVARLFASFQNKDNLFLVMEYLPGGDLATLIKMMGYLPDQWAKQYLTEIVVGVNDMHQNGIIHHDLKPENLLIDNAGHVKLTDFGLSRAGLIRRHKFVPHKSSLSISSTLPIDNPANNFTMNNNNSNHSQLSTPDSFTSDHKQYNRSKKSSLGQQYEHSEYSSTSNSHSMTPTPSTNTVVYPSYYRGKDRSHGSSNIDLPASLRRSESQLSFSLLDISRSSTPPLANPTNSNANNIMRRKSLTENKSFSNDLLSSDAIAATNTNINSNNNISLSPAPSDLALFYPDDSKQNKKFFGTPDYLAPETIEGKGEDNKQCDWWSVGCIFFELLLGYPPFHAETPDAVFKKILSGVIQWPEFKNEEEEREFLTPEAKDLIEKLLVVDPAKRLGAKGIQEIKDHPYFKNVDWDHVYDEEASFVPTIDNPEDTDYFDLRGAELQDFGDDIENDNANILFGKHGINTDVSELSAANLSPPLNHKNILSRKLSMSNTTNRSSNNSNSSVHDFGAHTPVNKLSIASVLESVPQETGYITPNGTGTTTTSAKNSPNLKNLSLAIPPHMRDRRSSKLNDSQTEFGSFNFRNLSALDKANKDAINRLKSEHFSEQPGVHRRTSSASLMGSSSDGSVSTPGSNASNTTSGGKLKIHKPTISGSPSTFGTFPKTFLRSDSFSTRSYSPERSISIDSSTLSRKGSIIGDNQQTTANSSDSPTMTKFKSPLSPANTTTVSSYFSRQRVLSKSFSQRTNSSDLSAEESDRLQAISRVNSLRNRRRSGRKSSSTSEIGYHMDVLVCEPIPIHRYRVTKDLENLGCTVVSVGAGDELVSRATSGVSFDLIMTALKLPKLGAIDIVQLLKQTNGANSTTPIVAITNYFQEAATSRVFDDVLEKPVKLDELKKLVAKYALKKSQEDEEHTILSDSDETH
partner: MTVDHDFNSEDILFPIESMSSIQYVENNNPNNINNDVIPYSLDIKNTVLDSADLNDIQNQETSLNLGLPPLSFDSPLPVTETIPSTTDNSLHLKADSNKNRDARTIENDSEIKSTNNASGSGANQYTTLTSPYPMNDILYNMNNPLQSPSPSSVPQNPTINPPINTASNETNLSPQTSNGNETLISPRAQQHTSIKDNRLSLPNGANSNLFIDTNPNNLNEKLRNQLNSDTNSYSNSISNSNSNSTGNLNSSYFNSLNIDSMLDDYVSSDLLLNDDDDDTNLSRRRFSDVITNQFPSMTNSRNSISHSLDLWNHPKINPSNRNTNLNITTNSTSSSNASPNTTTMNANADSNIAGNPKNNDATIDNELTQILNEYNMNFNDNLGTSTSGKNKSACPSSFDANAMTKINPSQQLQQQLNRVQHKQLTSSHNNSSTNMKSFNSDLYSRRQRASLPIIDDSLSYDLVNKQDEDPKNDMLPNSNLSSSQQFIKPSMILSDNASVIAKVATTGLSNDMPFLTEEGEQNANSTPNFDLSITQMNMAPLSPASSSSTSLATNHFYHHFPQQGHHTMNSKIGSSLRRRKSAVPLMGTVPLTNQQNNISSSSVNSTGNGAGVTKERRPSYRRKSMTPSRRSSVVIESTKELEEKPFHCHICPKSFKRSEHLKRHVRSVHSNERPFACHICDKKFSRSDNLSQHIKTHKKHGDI
B2: Serine/threonine-protein kinase RIM15 (Saccharomyces cerevisiae), P43565 (parent)
chain: B1 chain
partner: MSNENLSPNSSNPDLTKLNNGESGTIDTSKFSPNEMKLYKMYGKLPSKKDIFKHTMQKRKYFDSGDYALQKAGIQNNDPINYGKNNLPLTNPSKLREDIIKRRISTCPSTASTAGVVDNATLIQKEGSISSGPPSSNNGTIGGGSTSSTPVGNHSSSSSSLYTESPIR
B3: Serine/threonine-protein kinase RIM15 (Saccharomyces cerevisiae), P43565 (parent)
chain: B1 chain

In the first assay the parent is B1. The following applies: with msn2_yeast MSN2, P33748.
Consider K823Y;C1176Y, for which the “effect of a mutation on the interaction” value is on record as “disrupting interaction”.

The variants in a further assay derive from B2. The following applies: with igo1_yeast IGO1, P53897.
In the case of K823Y;C1176Y, the “effect of a mutation on the interaction” value was “disrupting interaction”.

The variants in the next assay derive from B3. The following applies: with hsf_yeast HSF1, P10961.
Chain of hsf_yeast HSF1, P10961 (P10961 whole entry): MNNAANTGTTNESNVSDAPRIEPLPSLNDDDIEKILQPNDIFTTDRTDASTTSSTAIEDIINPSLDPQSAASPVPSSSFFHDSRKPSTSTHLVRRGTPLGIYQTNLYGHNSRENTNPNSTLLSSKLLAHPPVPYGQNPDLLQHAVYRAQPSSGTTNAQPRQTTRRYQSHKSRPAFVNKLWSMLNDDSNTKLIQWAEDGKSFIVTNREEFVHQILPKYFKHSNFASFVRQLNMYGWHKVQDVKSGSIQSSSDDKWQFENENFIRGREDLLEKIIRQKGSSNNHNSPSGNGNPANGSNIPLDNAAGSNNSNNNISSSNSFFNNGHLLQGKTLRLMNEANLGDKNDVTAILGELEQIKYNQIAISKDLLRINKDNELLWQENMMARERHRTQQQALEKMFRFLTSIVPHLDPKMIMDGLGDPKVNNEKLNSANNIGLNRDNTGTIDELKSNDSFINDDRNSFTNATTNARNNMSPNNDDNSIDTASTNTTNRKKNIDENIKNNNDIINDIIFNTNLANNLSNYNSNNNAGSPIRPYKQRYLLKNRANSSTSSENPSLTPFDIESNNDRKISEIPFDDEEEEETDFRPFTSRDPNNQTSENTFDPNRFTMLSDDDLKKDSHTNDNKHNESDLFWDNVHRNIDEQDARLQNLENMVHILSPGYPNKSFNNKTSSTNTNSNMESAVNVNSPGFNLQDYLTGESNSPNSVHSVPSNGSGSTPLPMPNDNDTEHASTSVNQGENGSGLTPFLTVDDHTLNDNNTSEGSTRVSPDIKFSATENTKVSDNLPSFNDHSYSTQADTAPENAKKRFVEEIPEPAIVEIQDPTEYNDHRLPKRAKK
As to K823Y;C1176Y, the “effect of a mutation on the interaction” value was “disrupting interaction”.

The values above are taken from IntAct's records for PubMed 24140345.
